Experiments:
[1] = target: T1, α5β1 integrin on cells (U937 and other CD40-negative cell lines) (human, UniProt P08648 42-1049; P05556 21-798); assay: cell-based or functional assay
CD40 on BJAB B cells = target: T2, CD40 on BJAB B cells (human, UniProt P25942 21-277); assay: flow cytometry, competition with sCD40L-Alexa on BJAB cells
T2 construct: whole, on cells; also called CD40-positive human BJAB B cell line

[2] = target: T1, α5β1 integrin on cells (U937 and other …); assay: flow cytometry, competition with sCD40L-Alexa on U937 cells

T1 sequence (P08648 42-1049, chain 1 of 2): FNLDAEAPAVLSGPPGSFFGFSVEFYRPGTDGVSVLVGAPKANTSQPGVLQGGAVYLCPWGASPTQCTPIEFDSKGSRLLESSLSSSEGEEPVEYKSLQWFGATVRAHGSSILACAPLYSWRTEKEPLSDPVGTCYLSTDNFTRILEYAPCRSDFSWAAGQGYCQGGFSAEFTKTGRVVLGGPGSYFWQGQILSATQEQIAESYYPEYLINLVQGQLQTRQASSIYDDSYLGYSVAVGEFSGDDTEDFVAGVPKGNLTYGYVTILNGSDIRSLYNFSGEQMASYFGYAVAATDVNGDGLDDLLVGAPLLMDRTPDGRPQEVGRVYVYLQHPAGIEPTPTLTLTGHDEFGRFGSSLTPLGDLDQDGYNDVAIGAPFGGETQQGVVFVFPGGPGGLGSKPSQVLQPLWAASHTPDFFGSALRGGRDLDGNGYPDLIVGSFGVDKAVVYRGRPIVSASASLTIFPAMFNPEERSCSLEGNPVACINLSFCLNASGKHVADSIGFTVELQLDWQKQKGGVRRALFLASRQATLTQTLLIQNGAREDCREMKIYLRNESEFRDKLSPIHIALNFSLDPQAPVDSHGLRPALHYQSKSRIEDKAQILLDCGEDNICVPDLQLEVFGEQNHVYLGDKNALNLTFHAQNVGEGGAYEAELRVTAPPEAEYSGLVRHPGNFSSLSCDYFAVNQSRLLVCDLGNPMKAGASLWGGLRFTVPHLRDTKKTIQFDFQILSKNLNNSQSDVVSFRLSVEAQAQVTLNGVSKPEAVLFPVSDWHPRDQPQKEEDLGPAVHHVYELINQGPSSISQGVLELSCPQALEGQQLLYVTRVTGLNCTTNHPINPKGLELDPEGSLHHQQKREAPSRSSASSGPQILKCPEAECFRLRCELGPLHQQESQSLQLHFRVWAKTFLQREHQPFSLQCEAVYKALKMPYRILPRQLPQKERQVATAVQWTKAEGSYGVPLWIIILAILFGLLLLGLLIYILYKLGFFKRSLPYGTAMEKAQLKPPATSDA
T1 sequence (P05556 21-798, chain 2 of 2): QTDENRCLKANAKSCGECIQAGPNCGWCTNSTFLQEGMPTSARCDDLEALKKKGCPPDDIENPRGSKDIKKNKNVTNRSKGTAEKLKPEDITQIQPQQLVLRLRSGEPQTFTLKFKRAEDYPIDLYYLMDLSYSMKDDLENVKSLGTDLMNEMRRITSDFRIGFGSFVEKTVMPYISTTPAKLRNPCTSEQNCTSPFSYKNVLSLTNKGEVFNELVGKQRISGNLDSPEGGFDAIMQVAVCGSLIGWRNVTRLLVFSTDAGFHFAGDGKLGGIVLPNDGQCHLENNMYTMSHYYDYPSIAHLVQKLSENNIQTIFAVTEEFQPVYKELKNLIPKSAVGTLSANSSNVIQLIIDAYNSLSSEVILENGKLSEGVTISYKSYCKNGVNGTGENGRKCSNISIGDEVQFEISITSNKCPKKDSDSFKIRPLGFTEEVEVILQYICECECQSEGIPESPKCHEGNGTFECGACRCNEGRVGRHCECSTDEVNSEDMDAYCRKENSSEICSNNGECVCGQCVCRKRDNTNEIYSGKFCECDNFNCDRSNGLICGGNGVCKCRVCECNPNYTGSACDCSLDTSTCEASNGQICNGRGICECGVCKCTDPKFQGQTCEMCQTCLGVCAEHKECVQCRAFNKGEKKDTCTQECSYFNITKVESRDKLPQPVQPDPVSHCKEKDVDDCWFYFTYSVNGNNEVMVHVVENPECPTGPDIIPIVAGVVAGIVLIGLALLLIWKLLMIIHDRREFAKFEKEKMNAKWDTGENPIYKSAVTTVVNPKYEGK
T2 sequence (P25942 21-277): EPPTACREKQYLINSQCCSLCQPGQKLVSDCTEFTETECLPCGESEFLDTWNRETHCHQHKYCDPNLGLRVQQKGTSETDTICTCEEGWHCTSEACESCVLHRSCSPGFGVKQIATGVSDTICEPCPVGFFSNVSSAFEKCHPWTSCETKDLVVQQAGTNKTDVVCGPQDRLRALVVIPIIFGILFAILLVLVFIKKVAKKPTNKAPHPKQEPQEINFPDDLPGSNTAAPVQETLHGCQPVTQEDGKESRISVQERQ

| IL-8 mRNA expression (RT-PCR, U937 cells) [1] [fold increase] | binding result (CD40 on BJAB B cells) | binding result [2] | Binder |
| --- | --- | --- | --- |
| 2.5 |  |  | Recombinant trimeric soluble CD40L (ligand, UniProt P29965 51-261, looked up, Alexa Fluor-488 label in the form called rsCD40L-A; unlabelled in the solid phase assay and in cell stimulation) DKIEDERNLHEDFVFMKTIQRCNTGERSLSLLNCEEIKSQFEGFVKDIMLNKEETKKENSFEMQKGDQNPQIAAHVISEASSKTTSVLQWAEKGYYTMSNNLVTLENGKQLTVKRQGLYYIYAQVTFCSNREASSQAPFIASLCLKSPGRFERILLRAANTHSSAKPCGQQSIHLGGVFELQPGASVFVNVTDPSQVSHGTGFTSFGLLKL |
|  | binds | binds | CD40L Y170A (monomeric soluble human CD40L mutant) (ligand, Made in Drosophila S2 cells from the soluble human CD40L construct M113 to L261 with Y170 changed to alanine; Numbering of Y170 is that of full-length human CD40L; also called hsCD40LY170A; hCD40L mutated in its Y170 residue; not shown: C-terminal V5 / hexahistidine tag from the pMT-BiP/V5-His A vector) MQKGDQNPQIAAHVISEASSKTTSVLQWAEKGYYTMSNNLVTLENGKQLTVKRQGLYAIYAQVTFCSNREASSQAPFIASLCLKSPGRFERILLRAANTHSSAKPCGQQSIHLGGVFELQPGASVFVNVTDPSQVSHGTGFTSFGLLKL |
|  | binds | binds | CD40L G227A (monomeric soluble human CD40L mutant) (ligand, Made in Drosophila S2 cells from the soluble human CD40L construct M113 to L261 with G227 changed to alanine; also called hCD40L mutated in its G227 residue; not shown: C-terminal V5 / hexahistidine tag from the pMT-BiP/V5-His A vector) MQKGDQNPQIAAHVISEASSKTTSVLQWAEKGYYTMSNNLVTLENGKQLTVKRQGLYYIYAQVTFCSNREASSQAPFIASLCLKSPGRFERILLRAANTHSSAKPCGQQSIHLGAVFELQPGASVFVNVTDPSQVSHGTGFTSFGLLKL |
